Assay results as given in paper PMC6440998, “Tunable microsecond dynamics of an allosteric switch regulate the activity of a AAA+ disaggregation machine” (Nature Communications, 2019).

Tested on: T1, Nc1ncnc2c1ncn2[C@@H]1O[C@H](COP(=O)(O)OP(=O)(O)OP(=O)(O)O)[C@@H](O)[C@H]1O
T1 construct: full length, N-domain, NBD1, M domain, NBD2; pET28b, His6 tag with TEV cleavage site; expressed in E. coli BL21(DE3) pLysS; homohexamer
Assay: purified protein
Assay type: biochemical, Thermus thermophilus
Details: basal activity, no casein, 50 mM HEPES pH 7.8, 50 mM KCl, 10 mM MgCl2, 25 °C, Hill fit

TT ClpB (Thermus thermophilus HB8), sequence (chain, as listed by the source): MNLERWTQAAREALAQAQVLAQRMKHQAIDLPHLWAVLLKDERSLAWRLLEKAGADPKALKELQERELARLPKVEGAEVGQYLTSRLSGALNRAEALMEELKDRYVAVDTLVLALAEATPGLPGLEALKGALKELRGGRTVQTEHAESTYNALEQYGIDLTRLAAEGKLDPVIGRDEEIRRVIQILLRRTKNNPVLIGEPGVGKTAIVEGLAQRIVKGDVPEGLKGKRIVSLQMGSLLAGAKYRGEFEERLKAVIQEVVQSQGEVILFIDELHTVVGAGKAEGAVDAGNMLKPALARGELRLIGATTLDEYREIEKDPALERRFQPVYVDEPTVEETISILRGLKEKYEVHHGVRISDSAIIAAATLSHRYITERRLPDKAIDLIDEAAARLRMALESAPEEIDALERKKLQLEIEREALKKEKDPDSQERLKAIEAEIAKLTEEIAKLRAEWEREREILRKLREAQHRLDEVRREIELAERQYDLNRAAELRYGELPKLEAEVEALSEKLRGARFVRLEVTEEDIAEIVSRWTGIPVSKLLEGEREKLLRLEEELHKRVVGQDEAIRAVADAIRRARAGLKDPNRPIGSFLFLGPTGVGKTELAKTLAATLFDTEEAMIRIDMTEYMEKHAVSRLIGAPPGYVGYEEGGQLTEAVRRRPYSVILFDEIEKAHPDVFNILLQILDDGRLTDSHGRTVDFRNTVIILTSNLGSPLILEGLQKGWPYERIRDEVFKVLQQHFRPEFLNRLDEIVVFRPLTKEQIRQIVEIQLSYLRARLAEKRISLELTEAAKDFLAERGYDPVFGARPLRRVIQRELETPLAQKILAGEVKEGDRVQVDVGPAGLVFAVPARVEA

TT ClpB (Thermus thermophilus HB8) was tested, and the K0.5 was 390 ± 15 µM and the kcat was 0.0533 ± 0.00167 s⁻¹.
